# Reference: patent US20230374148A1, “BINDING MOLECULES THAT MULTIMERISE CD45” (UCB BIOPHARMA SRL, priority 2020, published 2023)
# Experiments:
# Type in all cases: cell-based
# SU-DHL-5 = experiment: Apoptosis of cell lines: SU-DHL-5; conditions: SU-DHL-5, 21 hrs
# Text: (§1) The following cell lines representing various leukaemia's and lymphoma's, as classified by ATCC (www.atcc.org/), were used: Jurkat—acute T-cell leukaemia; CCRF-SB—B-cell acute lymphoblastic leukaemia; MC116—B-cell undifferentiated lymphoma; Raji, Ramos—Burkitt lymphoma (rare form of B-cell non-Hodgkin lymphoma); SU-DHL-4, SU-DHL-5, SU-DHL-8, NU-DUL-1, OCI-Ly3—Diffuse large B-cell lymphoma; THP-1—acute monocytic leukaemia; and Dakiki—B cell nasopharyngeal carcinoma.
# (§2) Prior to an assay being performed, 1 vial of each of the above cell lines was thawed in a 37° C. water bath and then added to 20 ml complete media (RPMI 1640+2 mM GlutaMAX+1% Pen/Strep, all previous supplied by Invitrogen, +10% Fetal Bovine Serum (FBS), Sigma Aldrich). Cells were spun (500 g, 5 min, at RT) and re-suspended in 20 ml complete media to wash and spun again. Cells were resuspended in 10 ml complete media and then counted using a ChemoMetec NucleoCounter NC-3000. 6×10^6 cells of each cell line were spun (500 g, 5 min, at RT) and re-suspended in 4.8 ml complete media. 1×10^5 cells in 80 μl were then added to each well of a Corning Costar 96-well, cell culture treated, U-shaped-bottom microplate (cat no. 07-200-95). The plate was rested in a 37° C., 5% CO2 incubator for 2 hrs
# (§3) Stocks of 4133-6294 BYbe and NegCtrl BYbe at 2500 nM in complete media were prepared. In a Greiner 96-well non-binding microplate, both reagents were serially diluted in complete media 1 in 5, seven times to produce to form an 8-point dose curve. […] (final well concentrations 500-0.0064 nM) was added to the cells. Each concentration was produced in triplicate. Camptothecin (cat no. C9911-100MG, Sigma Aldrich) and Staurosporine (cat no. 56942-200UL, Sigma Aldrich) were added as positive controls of apoptosis. Both were diluted in complete media and added to the well to produce a final concentration of 5 μM. Additional positive controls included anti-thymocyte globulin (ATG, indicated by FDA for use in conditioning regimens), Rituximab (anti-CD20, indicated by FDA for Non-Hodgkin Lymphoma and Chronic Lymphocytic Leukaemia) and Campath (anti-CD52, indicated by FDA for B-cell Chronic Lymphocytic Leukaemia). Anti-thymocyte globulin, Rituximab and Campath were added to the wells to produce final concentrations of 200 μg/ml, 500 nM and 200 μg/ml, respectively. […]
# (§4) Following the incubation, the plates were spun at 500 g, 5 min, RT, the buffer was aspirated with a BioTek ELx405 microplate washer, and the cells were re-suspended in FACS buffer (PBS+1% bovine serum albumin (BSA)+0.1% NaN3+2 mM EDTA, Sigma Aldrich) to wash and then re-spun and buffer was aspirated to leave the cells in 20 μl residual media. […] Cells were analysed using the Bio-Rad ZE5 Cell Analyzer. […]
# Dakiki = experiment: Apoptosis of cell lines: Dakiki; conditions: 21 hrs
# Text: as §1, §2, §3, §4
# Jurkat = experiment: Apoptosis of cell lines: Jurkat; conditions: 21 hrs
# Text: as §1, §2, §3, §4
# Human whole blood = experiment: T cell count in whole blood at 24 hrs; conditions: Fab-KD-Fab or BYbe 100 nM, Campath 10 μg/ml, in comparison with PBS- and NegCtrl BYbe-treated wells
# Procedure: Human whole blood (Lithium heparin tubes) was taken from one donor (HTA #031219-06) at UCB Pharma Slough, UK according to approved ethical sample collection protocol.
# In a Greiner 96-well non-binding microplate, Fab-X and Fab-Y combination 6294-X/4133-Y was added to PBS to give a Fab-KD-Fab concentration of 2000 nM. Similarly, stocks of 4133-6294 BYbe and NegCtrl BYbe were prepared in PBS at 2000 nM. The microplate was incubated for 1 hr at 37° C., 5% CO2. Following the incubation, Fab-KD-Fab and BYbe reagents were then serially diluted in PBS 1 in 5, seven times to produce to form an 8-point dose curve.
# 12.5 μl of Fab-KD-Fab or BYbe dilution was transferred into Corning Costar 96-well, cell culture treated, U-shaped-bottom microplate (cat no. 07-200-95) and 237.5 μl of whole blood added to each well. Final well concentrations of Fab-KD-Fab or BYbes were 100-0.00128 nM. Campath (clinical grade, diluted from 30 mg/ml stock to 1 mg/ml in PBS, lot number F1002H29) was used as a positive control at a final concentration of 10 μg/ml. Plates were sealed with a gas permeable adhesive seal and plate lids were replaced. […]
# Following the incubation with the antibody cocktail, cells were washed twice as outlined above and buffer aspirated to leave the cells in 20 μl residual buffer. […] Cells were analysed live using the Intellicyt iQue Screener PLUS. […]
Molecule,Campath mean (%) cell reduction (SU-DHL-5; 200 μg/ml) [%],Campath mean (%) cell reduction (Dakiki; 200 μg/ml) [%],Campath mean (%) cell reduction (Jurkat; 200 μg/ml) [%],reduction in T cell numbers (Human whole blood),Bottom (%) level of % cell reduction (SU-DHL-5) [%],Top (%) level of % cell reduction (SU-DHL-5) [%],Bottom (%) level of % cell reduction (Dakiki) [%],Top (%) level of % cell reduction (Dakiki) [%],Bottom (%) level of % cell reduction (Jurkat) [%],Top (%) level of % cell reduction (Jurkat) [%]
"Campath: anti-CD52, clinical grade, indicated by FDA for B-cell Chronic Lymphocytic Leukaemia; positive control [reference compound]",26.74,8.83,5.64,roughly 8 fold,,,,,,
4133-6294 BYbe: anti-CD45 BYbe (Fab-scFv): 4133 Fab HC-G4S linker-6294 scFv heavy chain paired with 4133 light chain (antibody) heavy: QEQLVESGGGLVQPEGSLTLTCTASGFSFSGNYYMCWVRQAPGKGLEWIGCLYTGSSGSTYYASWAKGRFTISKTSSTTVTLQMTSLTAADTATYFCARDLGYEIDGYGGLWGQGTLVTVSSGQPKAPSVFPLAPCCGDTPSSTVTLGCLVKGYLPEPVTVTWNSGTLTNGVRTFPSVRQSSGLYSLSSVVSVTSSSQPVTCNVAHPATNTKVDKTVAPSTCSKPGGGGSGGGGSEVQLVESGAELARPGASVKMSCKASGYTFTSYTMHWVKQRPGQCLEWIGYINPSSGYTEYNQKFKDKTTLTADKSSSTAYLQLSSLTSEDSAVYYCARVGDGFYPSWLAYWGQGTLVTVSSGGGGSGGGGSGGGGSGGGGSDIQMTQSPKFLLVSAGDRVTITCKASQSVRNDVAWYQQKPGQSPKLLIFYASKRYTGVPDRFTGSGYGTDFTFTISTVQAEDLAVYFCQQDYSSPTTFGCGTKLEIK light: AQVLTQTPSPVSAVVGGTVSISCQASQSVYNNNNLSWYQQKPGQPPKLLIYDASKLASGVPSRFKGSGSGTQFTLTISGVQCDDAATYYCLGGYYSSGWYFAFGGGTKVVVKRTPVAPTVLIFPPAADQVATGTVTIVCVANKYFPDVTVTWEVDGTTQTTGIENSKTPQNSADCTYNLSSTLTLTSTQYNSHKEYTCKVTQGTTSVVQSFNRGDC,,,,5 fold,43.93,91.01,10.88,76.37,23.49,99.27
